Results published in article PMC7195849 (Science signaling, 2019).
One block for each molecule: values may come before it. Ends that are not written are not given here. * marks the point of attachment. Biotin = O=C1N[C@H]2[C@H](CS[C@H]2CCCCC(=O)*)N1

Legend:
[1] = molecular target: PKCθ C2 domain, 1-144 (UniProt Q04759); assay: ELISA, immobilized biotin-peptide, soluble GST-C2; settings: reference: unphosphorylated Y126 peptide; sites Y126
[2] = molecular target: T1, GST-PKCθ-C2^WT (GST fusion of the C2 domain of human PKCθ, aa 1–144) (human, UniProt Q04759 1-144); assay: ELISA
T1 sequence (looked up): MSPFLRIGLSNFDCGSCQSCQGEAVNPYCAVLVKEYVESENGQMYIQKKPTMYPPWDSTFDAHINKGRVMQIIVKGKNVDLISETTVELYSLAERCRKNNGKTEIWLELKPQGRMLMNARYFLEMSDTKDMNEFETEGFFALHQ

binding against the reference [1]: stronger
Molecule: Zap70 (from UniProt P43403) pY126 peptide

binding result [2]: binds
B1: Zap70 peptide Y126 (non-phosphorylated), N-terminally biotinylated (peptide)
peptide: Biotin-AMVRDYVRQTWK
